Results from the supplement of paper PMC10567573.

B1: FCHSD1 (parent)
chain: LEAAEVILEHAHRGEQTTSQVSWE

Variants of: B1
Test: protein stability index of a GFP-peptide fusion (GPS, HEK-293T) (PSI 1-6); higher = more stable
Conditions: c terminus: a fixed tail appended
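Further: lentivirally expressed fusions sorted by FACS into six bins by GFP to DsRed ratio, PSI derived from sequencing read proportions per bin multiplied by bin number.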

Variant | protein stability index
LEAAEVILEHAIRGEQTTSQVSWE | 4.25
LEAAEVILEHASRGEQTTSQVSWE | 4.77
LEAAEVILEHADRGEQTTSQVSWE | 4.04
LEAAEVILEHAKRGEQTTSQVSWE | 4.07
LEAAEVILEHAYRGEQTTSQVSWE | 4.09
LEAAEVILEHAHRGEQTTSQLSWE | 4.58
LEAAEVILEHAHRGEQTTSQQSWE | 4.44
LEAAEVILEHAHRGEQTTSQFSWE | 3.3
LEAAEVILEHAHRGEQTTSQYSWE | 3.9
LEAAEVILEHAHRGEQTTSQRSWE | 4.18
LEAAEVILEHAHRGEQTTSQGSWE | 4.94
LEAYEVILEHAHRGEQTTSQVSWE | 2.48
LEAIEVILEHAHRGEQTTSQVSWE | 2.56
LEAHEVILEHAHRGEQTTSQVSWE | 4.46
LEANEVILEHAHRGEQTTSQVSWE | 4.52
LEAEEVILEHAHRGEQTTSQVSWE | 5.11
LEAFEVILEHAHRGEQTTSQVSWE | 2.35
LEACEVILEHAHRGEQTTSQVSWE | 4.59
LEAGEVILEHAHRGEQTTSQVSWE | 5.06
LEAAEVILEHAHRGKQTTSQVSWE | 3.46
LEAAEVILEHAHRGDQTTSQVSWE | 4.22
LEAAEVILEHAHRGFQTTSQVSWE | 2.31
LEAAEVELEHAHRGEQTTSQVSWE | 4.64
LEAAEVNLEHAHRGEQTTSQVSWE | 5.08

Variant | protein stability index
LEAAEVHLEHAHRGEQTTSQVSWE | 5.15
LEAAEVCLEHAHRGEQTTSQVSWE | 4.28
LEAAEVLLEHAHRGEQTTSQVSWE | 4.99
LEAAEVYLEHAHRGEQTTSQVSWE | 4.7
LEAAEVGLEHAHRGEQTTSQVSWE | 5.1
LEAAEVILEHYHRGEQTTSQVSWE | 3.47
LEAAEVILEHRHRGEQTTSQVSWE | 4.71
LEAAEVILEHPHRGEQTTSQVSWE | 5.38
LEAAEVILEHSHRGEQTTSQVSWE | 4.12
LEAAEVILEHEHRGEQTTSQVSWE | 4.69
LEAAEVILEHFHRGEQTTSQVSWE | 3.27
LEAAEVILEHLHRGEQTTSQVSWE | 4.77
LEAAEVILEHWHRGEQTTSQVSWE | 3.23
LEAAEVILEHAHRGEQTTSQVSWA | 3.2
LEAAEVILEHAHRGEQTTSQVSWG | 2.57
LEAAEVILEHAHRGEQTTSQVSWS | 4.46
LEAAEVILEHAHRGEQTTSQVSWN | 3.92
LEAAEVILEHAHRGEQTTSQVSWK | 4.64
LEAAEVILEHAHRGEQTTSQVSWC | 3.88
LEAAEVILEHAHRGEQTTSQVSWW | 2.66
LEAAEVILEHAHRREQTTSQVSWE | 4.19
LEAAEVILEHAHRTEQTTSQVSWE | 4.21
LEAAEVILEHAHRVEQTTSQVSWE | 3.47
LEAAEVILEHAHRMEQTTSQVSWE | 3.45

Variant | protein stability index
LEAAEVILEHAHRSEQTTSQVSWE | 4.46
LEAAEVILEHAHRHEQTTSQVSWE | 4.28
LEAAEVILEHAHRCEQTTSQVSWE | 4.2
LEAAEVILEHAHRLEQTTSQVSWE | 3.76
LEAAEVILCHAHRGEQTTSQVSWE | 3.04
LEAAEVILMHAHRGEQTTSQVSWE | 2.66
LEAAEVILTHAHRGEQTTSQVSWE | 3.62
LEAAEVILVHAHRGEQTTSQVSWE | 2.5
LEAAEVILNHAHRGEQTTSQVSWE | 3.8
LEAAEVILFHAHRGEQTTSQVSWE | 2.54
LEAAEVILSHAHRGEQTTSQVSWE | 4.4
LEAAEVILHHAHRGEQTTSQVSWE | 4.18
LEAAEVILRHAHRGEQTTSQVSWE | 3.39
LHAAEVILEHAHRGEQTTSQVSWE | 4.72
LCAAEVILEHAHRGEQTTSQVSWE | 1.85
LSAAEVILEHAHRGEQTTSQVSWE | 3.7
LKAAEVILEHAHRGEQTTSQVSWE | 3.93
LQAAEVILEHAHRGEQTTSQVSWE | 4.41
LAAAEVILEHAHRGEQTTSQVSWE | 3.94
LIAAEVILEHAHRGEQTTSQVSWE | 2.5
LPAAEVILEHAHRGEQTTSQVSWE | 4.32
LNAAEVILEHAHRGEQTTSQVSWE | 4.42
LEAAEVILEHAHRGEQYTSQVSWE | 3.32
LEAAEVILEHAHRGEQQTSQVSWE | 4.51

Variant | protein stability index
LEAAEVILEHAHRGEQCTSQVSWE | 4.51
LEAAEVILEHAHRGEQGTSQVSWE | 4.84
LEAAEVILEHAHRGEQNTSQVSWE | 4.39
LEAAEVILEHAHRGEQHTSQVSWE | 3.99
LEAAEVILEHAHRGEQPTSQVSWE | 4.14
LEAAEVIPEHAHRGEQTTSQVSWE | 5.65
LEAAEVIFEHAHRGEQTTSQVSWE | 4
LEAAEVIREHAHRGEQTTSQVSWE | 4.92
LEAAEVIGEHAHRGEQTTSQVSWE | 5.23
LEAAEVITEHAHRGEQTTSQVSWE | 5.09
LEAAEVIEEHAHRGEQTTSQVSWE | 5.09
LEAAEVIKEHAHRGEQTTSQVSWE | 4.98
LEAAEVIQEHAHRGEQTTSQVSWE | 5.5
LEAAEVISEHAHRGEQTTSQVSWE | 5.37
LEAAEVILEHAHIGEQTTSQVSWE | 4.11
LEAAEVILEHAHKGEQTTSQVSWE | 4.1
LEAAEVILEHAHDGEQTTSQVSWE | 4.67
LEAAEVILEHAHTGEQTTSQVSWE | 4.58
LEAAEVILEHAHMGEQTTSQVSWE | 4.27
LEAAEVILEHAHWGEQTTSQVSWE | 3.27
LEAAEVILEHAHSGEQTTSQVSWE | 4.24
LEAAEVILEHAHCGEQTTSQVSWE | 3.5
LEAAEVILEHAHAGEQTTSQVSWE | 4.58
LEAAEVILEYAHRGEQTTSQVSWE | 3.15

Variant | protein stability index
LEAAEVILENAHRGEQTTSQVSWE | 3.78
LEAAEVILEIAHRGEQTTSQVSWE | 2.88
LEAAEVILELAHRGEQTTSQVSWE | 4.34
LEAAEVILECAHRGEQTTSQVSWE | 3.63
LEAAEVILEFAHRGEQTTSQVSWE | 3.05
LEAAEVILEQAHRGEQTTSQVSWE | 4.88
LEAAEVILEGAHRGEQTTSQVSWE | 3.87
YEAAEVILEHAHRGEQTTSQVSWE | 5
CEAAEVILEHAHRGEQTTSQVSWE | 4.8
DEAAEVILEHAHRGEQTTSQVSWE | 4.42
MEAAEVILEHAHRGEQTTSQVSWE | 4.58
VEAAEVILEHAHRGEQTTSQVSWE | 4.7
NEAAEVILEHAHRGEQTTSQVSWE | 4.61
PEAAEVILEHAHRGEQTTSQVSWE | 5.11
WEAAEVILEHAHRGEQTTSQVSWE | 3.35
TEAAEVILEHAHRGEQTTSQVSWE | 5.34
QEAAEVILEHAHRGEQTTSQVSWE | 4.92
HEAAEVILEHAHRGEQTTSQVSWE | 4.88
EEAAEVILEHAHRGEQTTSQVSWE | 4.55
LEAAEVILEHAHRGEQTTSRVSWE | 4.45
LEAAEVILEHAHRGEQTTSVVSWE | 4.02
LEAAEVILEHAHRGEQTTSAVSWE | 3.72
LEAAEVILEHAHRGEQTTSLVSWE | 4.17
LEAAEVILEHAHRGEQTTSIVSWE | 4.42

Variant | protein stability index
LEAAEVILEHAHRGEQTTSPVSWE | 4.38
LEAAEVILEHAHRGEQTTSYVSWE | 4.26
LEAAEVILEHAHRGEQTTSCVSWE | 3.95
LEAAEVILEHAHRGEQTTSHVSWE | 4.2
LEAAEVILEHAHRGEQTTSFVSWE | 3.76
LEAAEVILEHAHRGEQTTSQVSHE | 5.61
LEAAEVILEHAHRGEQTTSQVSEE | 5.79
LEAAEVILEHAHRGEQTTSQVSSE | 5.24
LEAAEVILEHAHRGEQTTSQVSKE | 4.41
LEAAEVILEHAHRGEQTTSQVSRE | 4.58
LEAAEVILEHAHRGEQTTSQVSAE | 5.32
LEAAEVILEHAHRGEQTTSQVSCE | 3.4
LEAAEVILEHAHRGEQTTSQVSYE | 4.71
LEAAEVILEHAHRGEQTTSQVSME | 4.23
LEAAEVILEHAHRGEQTTSQVSQE | 5.54
LEAAEVILEHAHRGEQTTSQVSNE | 3.89
LEAAEVILEHAHRGEQTTSQVSLE | 5.12
LEAAEVILEHAHRGEQTTSQVPWE | 5.17
LEAAEVILEHAHRGEQTTSQVMWE | 4.54
LEAAEVILEHAHRGEQTTSQVRWE | 3.74
LEAAEVILEHAHRGEQTTSQVLWE | 3.79
LEAAEVILEHAHRGEQTTSQVVWE | 5.24
LEAAEVILEHAHRGEQTLSQVSWE | 4.11
LEAAEVILEHAHRGEQTMSQVSWE | 3.59

Variant | protein stability index
LEAAEVILEHAHRGEQTFSQVSWE | 2.98
LEAAEVILEHAHRGEQTVSQVSWE | 3.88
LEAAEVILEHAHRGEQTHSQVSWE | 4.09
LEAAEVILEHAHRGEQTQSQVSWE | 3.21
LEAAEVILEHAHRGEQTPSQVSWE | 4.33
LEAAEVILEHAHRGEQTTLQVSWE | 2.8
LEAAEVILEHAHRGEQTTFQVSWE | 2.97
LEAAEVILEHAHRGEQTTAQVSWE | 2.6
LEAAEVILEHAHRGEQTTTQVSWE | 4.21
LEAAEVILEHAHRGEQTTMQVSWE | 3
LEAAEVILEHAHRGEQTTHQVSWE | 4.14
LEAAEVILEHAHRGEETTSQVSWE | 4.88
LEAAEVILEHAHRGEPTTSQVSWE | 4.05
LEAAEVILEHAHRGENTTSQVSWE | 3.97
LEAAEVILEHAHRGEGTTSQVSWE | 4.42
LEAAEVILEHAHRGEATTSQVSWE | 4.41
LEAAEVILEHAHRGEITTSQVSWE | 3.98
LEAAEVILEHAHRGEYTTSQVSWE | 3.69
LEAAEVILEHAHRGESTTSQVSWE | 4.4
LEAAEVILEHAHRGETTTSQVSWE | 4.33
LEAAEVILEHAHRGEKTTSQVSWE | 4.24
LEAAELILEHAHRGEQTTSQVSWE | 3.95
LEAAERILEHAHRGEQTTSQVSWE | 4.48
LEAAEIILEHAHRGEQTTSQVSWE | 4.03

Variant | protein stability index
LEAAEGILEHAHRGEQTTSQVSWE | 5.35
LEAAEAILEHAHRGEQTTSQVSWE | 4.9
LEAAEPILEHAHRGEQTTSQVSWE | 5.66
LEAAEEILEHAHRGEQTTSQVSWE | 5.31
LEAAEQILEHAHRGEQTTSQVSWE | 5.27
LEAAENILEHAHRGEQTTSQVSWE | 5.66
LEHAEVILEHAHRGEQTTSQVSWE | 3.86
LECAEVILEHAHRGEQTTSQVSWE | 4.92
LEIAEVILEHAHRGEQTTSQVSWE | 2.88
LEGAEVILEHAHRGEQTTSQVSWE | 4.53
LEYAEVILEHAHRGEQTTSQVSWE | 3.6
LESAEVILEHAHRGEQTTSQVSWE | 5.35
LEEAEVILEHAHRGEQTTSQVSWE | 4.74
LEKAEVILEHAHRGEQTTSQVSWE | 4.57
LEAACVILEHAHRGEQTTSQVSWE | 2.82
LEAAAVILEHAHRGEQTTSQVSWE | 2.84
LEAASVILEHAHRGEQTTSQVSWE | 4.1
LEAAVVILEHAHRGEQTTSQVSWE | 2.83
LEAADVILEHAHRGEQTTSQVSWE | 4.31
LEAAKVILEHAHRGEQTTSQVSWE | 3.48
